Assay results taken from patent US20210253718A1 (MODMAB THERAPEUTICS, published 2021).

T1: FZD10 cysteine-rich domain (CRD), MYC-tagged and GPI-anchored on CHO cells (human, UniProt Q9ULW2 30-156, GPI anchor)
T1 construct: also called FZD10 CRD; CHO-myc-FZDGPI; not shown: MYC tag and GPI anchor signal
T1 sequence: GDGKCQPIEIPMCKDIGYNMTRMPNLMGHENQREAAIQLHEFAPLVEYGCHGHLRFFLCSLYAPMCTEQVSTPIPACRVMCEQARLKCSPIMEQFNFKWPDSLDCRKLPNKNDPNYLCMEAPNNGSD

T2: FZD9 cysteine-rich domain (CRD), MYC-tagged and GPI-anchored on CHO cells (human, UniProt O00144 35-161, GPI anchor)
T2 construct: also called FZD9 CRD; CHO-myc-FZDGPI; not shown: MYC tag and GPI anchor signal
T2 sequence: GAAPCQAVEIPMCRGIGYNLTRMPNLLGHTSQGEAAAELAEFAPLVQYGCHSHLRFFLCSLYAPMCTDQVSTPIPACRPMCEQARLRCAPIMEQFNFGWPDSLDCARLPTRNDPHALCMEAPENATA

T3: FZD6 cysteine-rich domain (CRD), MYC-tagged and GPI-anchored on CHO cells (human, UniProt O60353 20-146, GPI anchor)
T3 construct: also called FZD6 CRD; CHO-myc-FZDGPI; not shown: MYC tag and GPI anchor signal
T3 sequence: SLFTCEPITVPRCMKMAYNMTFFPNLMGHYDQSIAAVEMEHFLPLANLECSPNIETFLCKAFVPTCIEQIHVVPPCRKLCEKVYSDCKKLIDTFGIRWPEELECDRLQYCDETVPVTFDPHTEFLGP

T4: FZD4 cysteine-rich domain (CRD), MYC-tagged and GPI-anchored on CHO cells (human, UniProt Q9ULV1 42-167, GPI anchor)
T4 construct: also called FZD4 CRD; CHO-myc-FZDGPI; not shown: MYC tag and GPI anchor signal
T4 sequence: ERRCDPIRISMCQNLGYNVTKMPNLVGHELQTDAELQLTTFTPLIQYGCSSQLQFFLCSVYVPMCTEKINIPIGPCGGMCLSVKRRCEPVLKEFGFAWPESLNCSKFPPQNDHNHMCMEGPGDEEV

T5: FZD3 cysteine-rich domain (CRD), MYC-tagged and GPI-anchored on CHO cells (human, UniProt Q9NPG1 24-150, GPI anchor)
T5 construct: domain: cysteine-rich domain (CRD); also called FZD3 CRD; CHO-myc-FZDGPI; not shown: MYC tag and GPI anchor signal
T5 sequence (looked up): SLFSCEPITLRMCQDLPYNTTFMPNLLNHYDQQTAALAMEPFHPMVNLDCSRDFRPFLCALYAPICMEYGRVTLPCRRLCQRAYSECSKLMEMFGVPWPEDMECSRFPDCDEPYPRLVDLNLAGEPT

T6: FZD5 cysteine-rich domain (CRD), MYC-tagged and GPI-anchored on CHO cells (human, UniProt Q13467 29-156, GPI anchor)
T6 construct: also called FZD5 CRD; CHO-myc-FZDGPI; not shown: MYC tag and GPI anchor signal
T6 sequence: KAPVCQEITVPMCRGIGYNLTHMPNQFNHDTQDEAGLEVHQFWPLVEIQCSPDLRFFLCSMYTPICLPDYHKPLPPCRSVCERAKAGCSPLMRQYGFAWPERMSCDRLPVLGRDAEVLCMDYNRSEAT

T7: FZD8 cysteine-rich domain (CRD), MYC-tagged and GPI-anchored on CHO cells (human, UniProt Q498S8 31-155 (rat entry), GPI anchor)
T7 construct: also called FZD8 CRD; CHO-myc-FZDGPI; not shown: MYC tag and GPI anchor signal
T7 sequence: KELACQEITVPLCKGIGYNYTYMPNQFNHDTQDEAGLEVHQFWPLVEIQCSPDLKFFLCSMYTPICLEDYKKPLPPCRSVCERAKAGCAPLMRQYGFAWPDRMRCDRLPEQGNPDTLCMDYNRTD


Columns and labels:
[1] = molecular target: T1, FZD10 cysteine-rich domain (CRD), …; assay: flow cytometry, CHO-CRD cells;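 also: flow cytometry of Fab binding to CHO cells overexpressing a Frizzled CRD, with binding defined as median fluorescence over twice that of CHO cells lacking any Frizzled CRD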
Procedure: (§1) Binding was measured via flow cytometry analysis of CHO cells overexpressing CRD of FZD1, FZD2, FZD3, FZD4, FZD5, FZD6, FZD7, FZD8, FZD9 or FZD10. Median fluorescence values are shown.

[2] = molecular target: T2, FZD9 cysteine-rich domain (CRD), …; assay: flow cytometry, CHO-CRD cells;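 also: flow cytometry of Fab binding to CHO cells overexpressing a Frizzled CRD, with binding defined as median fluorescence over twice that of CHO cells lacking any Frizzled CRD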
Procedure: as §1

[3] = molecular target: T3, FZD6 cysteine-rich domain (CRD), …; assay: flow cytometry, CHO-CRD cells;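 also: flow cytometry of Fab binding to CHO cells overexpressing a Frizzled CRD, with binding defined as median fluorescence over twice that of CHO cells lacking any Frizzled CRD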
Procedure: as §1

[4] = molecular target: T4, FZD4 cysteine-rich domain (CRD), …; assay: flow cytometry, CHO-CRD cells;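 also: flow cytometry of Fab binding to CHO cells overexpressing a Frizzled CRD, with binding defined as median fluorescence over twice that of CHO cells lacking any Frizzled CRD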
Procedure: as §1

[5] = molecular target: T5, FZD3 cysteine-rich domain (CRD), …; assay: flow cytometry, CHO-CRD cells
Procedure: as §1

[6] = molecular target: T1, FZD10 cysteine-rich domain (CRD), …; assay: immunofluorescence, CHO-CRD cells
[7] = molecular target: T2, FZD9 cysteine-rich domain (CRD), …; assay: immunofluorescence, CHO-CRD cells
[8] = molecular target: T3, FZD6 cysteine-rich domain (CRD), …; assay: immunofluorescence, CHO-CRD cells
[9] = molecular target: T4, FZD4 cysteine-rich domain (CRD), …; assay: immunofluorescence, CHO-CRD cells
[10] = molecular target: T5, FZD3 cysteine-rich domain (CRD), …; assay: immunofluorescence, CHO-CRD cells
[11] = molecular target: T6, FZD5 cysteine-rich domain (CRD), …; assay: flow cytometry, CHO-CRD cells
Procedure: as §1

[12] = molecular target: T7, FZD8 cysteine-rich domain (CRD), …; assay: flow cytometry, CHO-CRD cells
Procedure: as §1

[13] = molecular target: FZD1 cysteine-rich domain (CRD), MYC-tagged and GPI-anchored on CHO cells (human); assay: flow cytometry, CHO-CRD cells
Procedure: as §1

[14] = molecular target: FZD7 cysteine-rich domain (CRD), MYC-tagged and GPI-anchored on CHO cells (human, UniProt O75084 45-169); assay: flow cytometry, CHO-CRD cells
Procedure: as §1

[15] = molecular target: FZD2 cysteine-rich domain (CRD), MYC-tagged and GPI-anchored on CHO cells (human, UniProt Q14332 35-161); assay: flow cytometry, CHO-CRD cells
Procedure: as §1

median fluorescence [1] | median fluorescence [2] | median fluorescence [3] | median fluorescence [4] | median fluorescence [5] | binding result [6] | binding result [7] | binding result [8] | binding result [9] | binding result [10] | median fluorescence [11] | median fluorescence [12] | median fluorescence [13] | median fluorescence [14] | median fluorescence [15] | Binder
2.76 | 2.86 | 3.06 | 3.96 | 3.79 | no binding | no binding | no binding | no binding | no binding |  |  |  |  |  | Fab-2907 (Fab, V domains shown, Fab; also called Fv-2907) VH: EVQLVESGGGLVQPGGSLRLSCAASGFNIYSSYMHWVRQAPGKGLEWVASISSYSGSTYYADSVKGRFTISADTSKNTAYLQMNSLRAEDTAVYYCARSSWGAYIVSYGFDYWGQGTLVTVSS VL: DIQMTQSPSSLSASVGDRVTITCRASQSVSSAVAWYQQKPGKAPKLLIYSASSLYSGVPSRFSGSRSGTDFTLTISSLQPEDFATYYCQQVGYWWGLITFGQGTKVEIK
21.1 | 143 | 4.1 | 46.4 | 4.1 |  |  | no binding |  | no binding | 34.9 | 26.7 | 14.5 | 8.74 |  | Fab-2933 (Fab, V domains shown, Fab; also called Fv-2933) VH: EVQLVESGGGLVQPGGSLRLSCAASGFNLYSSYMHWVRQAPGKGLEWVASIYSSYGYTSYADSVKGRFTISADTSKNTAYLQMNSLRAEDTAVYYCARTVRGSKKPYFSGWAMDYWGQGTLVTVSS VL: DIQMTQSPSSLSASVGDRVTITCRASQSVSSAVAWYQQKPGKAPKLLIYSASSLYSGVPSRFSGSRSGTDFTLTISSLQPEDFATYYCQQFWWYASWLFTFGQGTKVEIK
4.37 | 4.87 | 3.79 |  | 6.26 | no binding | no binding | no binding |  | no binding | 33.1 | 13.8 | 30.1 | 22.2 |  | Fab-2930 (Fab, V domains shown, Fab; also called Fv-2930) VH: EVQLVESGGGLVQPGGSLRLSCAASGFNLSYYYIHWVRQAPGKGLEWVASIYPYSGSTSYADSVKGRFTISADTSKNTAYLQMNSLRAEDTAVYYCARGALDYWGQGTLVTVSS VL: DIQMTQSPSSLSASVGDRVTITCRASQSVSSAVAWYQQKPGKAPKLLIYSASSLYSGVPSRFSGSRSGTDFTLTISSLQPEDFATYYCQQWYGPYLITFGQGTKVEIK
5 | 4.7 | 4.37 |  | 7.91 | no binding | no binding | no binding |  | no binding | 33.7 | 12.8 | 19.5 | 54.2 | 20.7 | Fab-2899 (Fab, V domains shown, Fab; also called Fv-2899) VH: EVQLVESGGGLVQPGGSLRLSCAASGFNLYYYYMHWVRQAPGKGLEWVASIYPSSGSTSYADSVKGRFTISADTSKNTAYLQMNSLRAEDTAVYYCARGALDYWGQGTLVTVSS VL: DIQMTQSPSSLSASVGDRVTITCRASQSVSSAVAWYQQKPGKAPKLLIYSASSLYSGVPSRFSGSRSGTDFTLTISSLQPEDFATYYCQQWYSSYGLITFGQGTKVEIK

More lines, now with the values behind:

Binder | median fluorescence [1] | median fluorescence [2] | median fluorescence [3] | median fluorescence [4] | median fluorescence [5] | binding result [6] | binding result [7] | binding result [8] | binding result [9] | binding result [10] | median fluorescence [11] | median fluorescence [12] | median fluorescence [13] | median fluorescence [14] | median fluorescence [15]
Fab-2925 (Fab, V domains shown, Fab; also called Fv-2925) VH: EVQLVESGGGLVQPGGSLRLSCAASGFNLSYSSMHWVRQAPGKGLEWVASIYPSYGSTYYADSVKGRFTISADTSKNTAYLQMNSLRAEDTAVYYCARYGYFGLDYWGQGTLVTVSS VL: DIQMTQSPSSLSASVGDRVTITCRASQSVSSAVAWYQQKPGKAPKLLIYSASSLYSGVPSRFSGSRSGTDFTLTISSLQPEDFATYYCQQAWVYASLFTFGQGTKVEIK | 4.53 | 3.31 | 3.05 | 4.53 | 3.92 | no binding | no binding | no binding | no binding | no binding | 37.5 |  |  |  | 
Fab-2904 (Fab, V domains shown, Fab; also called Fv-2904) VH: EVQLVESGGGLVQPGGSLRLSCAASGFNIYSYSMHWVRQAPGKGLEWVAYISSSYGYTSYADSVKGRFTISADTSKNTAYLQMNSLRAEDTAVYYCARSWYAWAMDYWGQGTLVTVSS VL: DIQMTQSPSSLSASVGDRVTITCRASQSVSSAVAWYQQKPGKAPKLLIYSASSLYSGVPSRFSGSRSGTDFTLTISSLQPEDFATYYCQQSSYSLITFGQGTKVEIK | 3.43 | 3.37 | 3.59 |  | 4.14 | no binding | no binding | no binding |  | no binding | 29.7 | 10.1 | 15.5 | 42.9 | 12
Fab-2912 (Fab, V domains shown, Fab; also called Fv-2912) VH: EVQLVESGGGLVQPGGSLRLSCAASGFNISYSYIHWVRQAPGKGLEWVASISSSSGYTSYADSVKGRFTISADTSKNTAYLQMNSLRAEDTAVYYCARTVRGSKKPYFSGWAMDYWGQGTLVTVSS VL: DIQMTQSPSSLSASVGDRVTITCRASQSVSSAVAWYQQKPGKAPKLLIYSASSLYSGVPSRFSGSRSGTDFTLTISSLQPEDFATYYCQQFYFPYLITFGQGTKVEIK | 3.82 | 4.45 | 4.1 | 47 | 4.61 | no binding | no binding | no binding |  | no binding | 32.2 | 7.57 | 41 | 56.7 | 19.8
